Consider one substance from patent US20160136234A1.

Some targets named below: FGFR1 (h) (human) (UniProt P11362); PKCθ (h) (human) (UniProt Q04759); CaMKIIβ (h) (human) (UniProt Q13554); AMPKα1 (h) (human) (UniProt Q13131); Hck (h) (human) (UniProt P08631); PKBα (h) (human) (UniProt P31749); WNK3 (h) (human) (UniProt Q9BYP7); Src(T341M) (h) (human) (UniProt P12931); CaMKIδ (h) (human) (UniProt Q8IU85); p70S6K (h) (human) (UniProt P23443); DYRK2 (h) (human) (UniProt Q92630); Abl (Q252H) (h) (human) (UniProt P00519); PRK2 (h) (human) (UniProt Q16513); cSRC (h) (human) (UniProt P12931); Met(D1246H) (h) (human) (UniProt P08581); Met(M1268T) (h) (human) (UniProt P08581).

What all share (test): cell-based or functional assay
In another assay the target is T1, BrSK1 (h) (human) (UniProt Q8TDC3).
T1 sequence (looked up): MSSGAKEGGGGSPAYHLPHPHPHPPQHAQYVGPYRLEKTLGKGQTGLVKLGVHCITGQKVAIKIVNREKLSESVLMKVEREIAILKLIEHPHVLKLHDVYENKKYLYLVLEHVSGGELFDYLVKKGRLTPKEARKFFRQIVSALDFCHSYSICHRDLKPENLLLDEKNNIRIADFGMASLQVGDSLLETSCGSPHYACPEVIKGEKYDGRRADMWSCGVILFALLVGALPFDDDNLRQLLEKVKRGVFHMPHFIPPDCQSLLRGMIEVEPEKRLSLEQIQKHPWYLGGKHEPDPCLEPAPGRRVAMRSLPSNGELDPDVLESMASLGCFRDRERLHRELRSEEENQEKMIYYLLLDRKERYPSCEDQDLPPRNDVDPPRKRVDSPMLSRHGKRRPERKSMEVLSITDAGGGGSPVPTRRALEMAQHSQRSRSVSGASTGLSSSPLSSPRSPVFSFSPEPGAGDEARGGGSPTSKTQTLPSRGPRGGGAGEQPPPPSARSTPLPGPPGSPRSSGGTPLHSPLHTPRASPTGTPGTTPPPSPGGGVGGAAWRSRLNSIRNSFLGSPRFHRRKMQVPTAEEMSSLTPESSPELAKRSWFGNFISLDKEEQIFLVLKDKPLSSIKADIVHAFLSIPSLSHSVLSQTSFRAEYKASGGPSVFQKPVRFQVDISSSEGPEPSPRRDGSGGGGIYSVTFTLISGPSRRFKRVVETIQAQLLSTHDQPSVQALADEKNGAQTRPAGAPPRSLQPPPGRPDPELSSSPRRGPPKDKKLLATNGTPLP

Another assay concerns the target T2, NEK2 (h) (human) (UniProt P51955).
T2 sequence (looked up): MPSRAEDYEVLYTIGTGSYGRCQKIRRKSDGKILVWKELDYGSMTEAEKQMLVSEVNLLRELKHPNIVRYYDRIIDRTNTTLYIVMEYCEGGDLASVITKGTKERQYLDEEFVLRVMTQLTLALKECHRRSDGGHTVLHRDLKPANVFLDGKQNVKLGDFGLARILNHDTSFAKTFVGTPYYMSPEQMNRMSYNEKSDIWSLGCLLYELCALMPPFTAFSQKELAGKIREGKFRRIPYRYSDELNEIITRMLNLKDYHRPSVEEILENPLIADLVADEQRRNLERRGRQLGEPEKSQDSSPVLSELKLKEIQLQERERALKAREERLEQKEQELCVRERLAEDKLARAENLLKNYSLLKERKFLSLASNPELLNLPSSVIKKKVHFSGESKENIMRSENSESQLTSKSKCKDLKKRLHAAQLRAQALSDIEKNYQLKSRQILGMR

Another assay has as its target T3, DCAMKL2 (h) (human) (UniProt Q8N568).
T3 sequence (looked up): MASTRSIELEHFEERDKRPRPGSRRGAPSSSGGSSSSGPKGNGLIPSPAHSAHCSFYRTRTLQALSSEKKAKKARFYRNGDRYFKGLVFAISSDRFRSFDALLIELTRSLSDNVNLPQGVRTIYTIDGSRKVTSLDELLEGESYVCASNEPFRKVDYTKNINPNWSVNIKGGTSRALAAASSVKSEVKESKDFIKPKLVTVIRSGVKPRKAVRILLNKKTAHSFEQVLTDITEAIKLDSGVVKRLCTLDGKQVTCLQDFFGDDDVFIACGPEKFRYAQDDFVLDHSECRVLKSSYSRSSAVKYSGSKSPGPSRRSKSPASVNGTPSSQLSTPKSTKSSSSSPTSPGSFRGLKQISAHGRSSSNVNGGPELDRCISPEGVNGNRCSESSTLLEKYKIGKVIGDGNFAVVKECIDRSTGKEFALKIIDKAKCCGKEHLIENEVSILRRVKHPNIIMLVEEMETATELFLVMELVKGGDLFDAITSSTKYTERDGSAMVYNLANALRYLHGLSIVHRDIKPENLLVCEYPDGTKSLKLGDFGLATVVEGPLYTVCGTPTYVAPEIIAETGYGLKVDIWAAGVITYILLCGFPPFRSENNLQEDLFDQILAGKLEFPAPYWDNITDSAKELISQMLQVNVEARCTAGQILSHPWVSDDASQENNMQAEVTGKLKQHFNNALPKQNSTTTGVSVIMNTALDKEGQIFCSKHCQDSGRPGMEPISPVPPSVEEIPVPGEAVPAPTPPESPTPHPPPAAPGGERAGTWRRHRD

Abl (Q252H) (h) (human), sequence (P00519 27-1130 Q252H limits assumed): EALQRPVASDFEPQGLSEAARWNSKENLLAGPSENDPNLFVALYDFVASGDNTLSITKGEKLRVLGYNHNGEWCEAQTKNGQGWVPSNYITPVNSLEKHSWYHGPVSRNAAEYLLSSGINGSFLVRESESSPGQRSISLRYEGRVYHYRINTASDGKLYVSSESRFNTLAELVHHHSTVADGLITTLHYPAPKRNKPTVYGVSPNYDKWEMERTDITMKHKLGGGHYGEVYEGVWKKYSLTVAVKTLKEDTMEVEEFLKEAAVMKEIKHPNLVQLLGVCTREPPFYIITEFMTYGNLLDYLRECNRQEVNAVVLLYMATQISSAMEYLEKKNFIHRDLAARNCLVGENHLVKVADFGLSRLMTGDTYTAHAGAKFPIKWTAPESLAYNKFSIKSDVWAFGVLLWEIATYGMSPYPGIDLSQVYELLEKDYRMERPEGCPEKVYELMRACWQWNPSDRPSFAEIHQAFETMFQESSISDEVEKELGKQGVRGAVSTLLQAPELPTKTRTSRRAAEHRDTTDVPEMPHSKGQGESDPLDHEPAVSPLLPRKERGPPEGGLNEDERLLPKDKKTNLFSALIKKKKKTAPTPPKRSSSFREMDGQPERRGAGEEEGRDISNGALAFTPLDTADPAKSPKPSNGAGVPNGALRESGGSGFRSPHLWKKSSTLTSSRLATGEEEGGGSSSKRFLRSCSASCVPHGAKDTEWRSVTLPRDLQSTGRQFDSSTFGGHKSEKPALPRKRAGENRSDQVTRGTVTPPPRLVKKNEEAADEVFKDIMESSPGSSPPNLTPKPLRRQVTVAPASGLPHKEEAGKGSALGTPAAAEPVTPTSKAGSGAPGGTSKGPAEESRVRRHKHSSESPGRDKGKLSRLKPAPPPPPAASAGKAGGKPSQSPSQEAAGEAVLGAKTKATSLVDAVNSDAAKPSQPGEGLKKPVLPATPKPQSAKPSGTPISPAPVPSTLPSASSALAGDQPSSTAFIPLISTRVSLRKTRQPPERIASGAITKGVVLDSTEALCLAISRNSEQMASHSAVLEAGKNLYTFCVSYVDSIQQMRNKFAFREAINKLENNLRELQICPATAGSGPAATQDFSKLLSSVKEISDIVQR
PKBα (h) (human), sequence (P31749 whole entry): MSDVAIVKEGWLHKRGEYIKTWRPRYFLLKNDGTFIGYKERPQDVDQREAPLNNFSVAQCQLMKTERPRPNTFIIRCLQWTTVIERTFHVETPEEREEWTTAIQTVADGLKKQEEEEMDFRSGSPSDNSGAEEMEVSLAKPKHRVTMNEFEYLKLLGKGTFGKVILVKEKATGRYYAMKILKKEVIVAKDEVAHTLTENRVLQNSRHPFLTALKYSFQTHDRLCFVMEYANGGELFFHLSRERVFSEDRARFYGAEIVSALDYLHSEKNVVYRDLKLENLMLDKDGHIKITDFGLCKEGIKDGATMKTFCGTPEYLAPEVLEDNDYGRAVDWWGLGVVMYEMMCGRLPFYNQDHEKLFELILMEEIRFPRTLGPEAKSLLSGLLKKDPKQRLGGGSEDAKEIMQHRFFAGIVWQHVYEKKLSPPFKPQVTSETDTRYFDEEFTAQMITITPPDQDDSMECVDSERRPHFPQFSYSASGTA
CaMKIIβ (h) (human), sequence (Q13554 whole entry): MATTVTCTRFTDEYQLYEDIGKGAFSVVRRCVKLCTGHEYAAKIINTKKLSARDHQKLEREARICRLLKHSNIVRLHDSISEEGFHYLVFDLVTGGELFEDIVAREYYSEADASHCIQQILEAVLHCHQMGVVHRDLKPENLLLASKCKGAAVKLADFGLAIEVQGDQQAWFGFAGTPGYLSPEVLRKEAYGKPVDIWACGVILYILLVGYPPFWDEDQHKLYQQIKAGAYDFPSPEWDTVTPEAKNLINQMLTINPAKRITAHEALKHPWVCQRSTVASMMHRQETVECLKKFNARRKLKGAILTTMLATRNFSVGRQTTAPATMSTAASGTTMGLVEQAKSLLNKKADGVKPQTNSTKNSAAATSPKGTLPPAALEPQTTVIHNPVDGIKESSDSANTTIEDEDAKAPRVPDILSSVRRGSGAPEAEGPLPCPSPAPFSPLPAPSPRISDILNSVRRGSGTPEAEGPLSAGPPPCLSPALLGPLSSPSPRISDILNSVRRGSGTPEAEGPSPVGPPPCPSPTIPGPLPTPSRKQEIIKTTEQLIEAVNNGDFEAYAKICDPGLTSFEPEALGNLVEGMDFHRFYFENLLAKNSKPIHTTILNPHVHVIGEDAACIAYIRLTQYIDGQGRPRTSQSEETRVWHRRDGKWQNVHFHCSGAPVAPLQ
FGFR1 (h) (human), sequence (P11362 456-765 limits assumed): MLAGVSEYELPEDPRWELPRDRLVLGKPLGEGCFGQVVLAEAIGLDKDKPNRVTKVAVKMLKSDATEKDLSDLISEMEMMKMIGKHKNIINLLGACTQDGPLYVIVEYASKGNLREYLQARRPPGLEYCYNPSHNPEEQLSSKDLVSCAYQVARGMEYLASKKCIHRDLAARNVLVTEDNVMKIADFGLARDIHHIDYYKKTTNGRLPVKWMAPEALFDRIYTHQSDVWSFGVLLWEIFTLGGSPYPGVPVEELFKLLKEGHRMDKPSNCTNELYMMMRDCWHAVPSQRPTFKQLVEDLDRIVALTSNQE

Consider MMI-0300 (peptide), for which the % activity at 100 µM in the assay with FGFR1 (h) (human) stood at 55%; with BrSK1 (h) (human), 67%; with PKCθ (h) (human) it was 88%; in the assay with CaMKIIβ (h) (human), 2%; in the assay with AMPKα1 (h) (human), 71%; with Hck (h) (human), 72%. The % activity at 100 µM with PKBα (h) (human) was 57%; with WNK3 (h) (human), 77%; in the assay with Src(T341M) (h) (human), 70%; in the assay with CaMKIδ (h) (human) it was 10%; with NEK2 (h) (human), 78%; with p70S6K (h) (human), 35%. In addition, the % activity at 100 µM stood at 155% with DYRK2 (h) (human); 82% with Abl (Q252H) (h) (human); 33% in the assay with PRK2 (h) (human); 81% with DCAMKL2 (h) (human); 26% with cSRC (h) (human); 125% with Met(D1246H) (h) (human). In addition, in the assay with Met(M1268T) (h) (human), the % activity at 100 µM was determined as 255%.
